In test [1] the target is T1, human FcγRIIIa type V (allotype V158) extracellular domain with C-terminal His tag (human, UniProt P08637 17-208).
T1 construct: extracellular domain; also called FcγRIIIaV; FrgRIIIaV
The experiment in a line: SPR (Biacore), captured antibody, FcγR analyte. For orientation: Surface plasmon resonance follows binding to a sensor surface in real time, without labels.
T1 sequence (P08637 17-208 F176V): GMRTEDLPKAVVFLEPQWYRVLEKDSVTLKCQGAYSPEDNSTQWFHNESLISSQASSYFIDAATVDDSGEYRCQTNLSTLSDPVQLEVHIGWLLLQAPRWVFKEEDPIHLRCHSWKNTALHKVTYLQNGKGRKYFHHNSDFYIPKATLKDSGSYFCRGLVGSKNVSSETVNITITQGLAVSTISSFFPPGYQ

The target of test [2] is T2, human FcγRIa extracellular domain with C-terminal His tag (human, UniProt P12314 16-292).
T2 construct: extracellular domain; also called FrgRIa
T2 sequence (P12314 16-292): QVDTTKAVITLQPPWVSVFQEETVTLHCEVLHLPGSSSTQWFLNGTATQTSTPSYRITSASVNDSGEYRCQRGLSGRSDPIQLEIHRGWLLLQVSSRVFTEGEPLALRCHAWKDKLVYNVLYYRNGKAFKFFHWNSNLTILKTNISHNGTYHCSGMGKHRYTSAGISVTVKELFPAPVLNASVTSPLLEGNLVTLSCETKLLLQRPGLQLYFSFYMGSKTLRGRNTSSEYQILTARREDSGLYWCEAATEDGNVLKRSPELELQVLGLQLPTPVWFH
The test is described as follows: SPR (Biacore), captured antibody, FcγR analyte.

Test [3] deals with T3, human FcγRIIa type R (allotype R131) extracellular domain with C-terminal His tag (human, UniProt P12318 34-217).
T3 construct: extracellular domain; also called FcγRIIaR; FrgRIIaR
T3 sequence (looked up): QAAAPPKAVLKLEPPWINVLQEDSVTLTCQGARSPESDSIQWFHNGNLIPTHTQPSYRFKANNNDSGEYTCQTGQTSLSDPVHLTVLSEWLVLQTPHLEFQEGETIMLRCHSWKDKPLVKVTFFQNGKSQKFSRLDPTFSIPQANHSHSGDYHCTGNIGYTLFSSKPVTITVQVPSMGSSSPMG
The experiment in a line: SPR (Biacore), captured antibody, FcγR analyte.

Test [4] has as its target T4, human FcγRIIa type H (allotype H131) extracellular domain with C-terminal His tag (human, UniProt P12318 34-217).
T4 construct: extracellular domain; also called FcγRIIaH; FrgRIIaH
T4 sequence (looked up): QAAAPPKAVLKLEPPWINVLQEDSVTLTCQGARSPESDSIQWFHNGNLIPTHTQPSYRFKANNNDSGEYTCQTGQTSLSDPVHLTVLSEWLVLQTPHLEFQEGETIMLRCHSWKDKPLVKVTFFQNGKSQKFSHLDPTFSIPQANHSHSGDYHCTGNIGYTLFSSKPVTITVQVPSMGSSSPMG
The test is described as follows: SPR (Biacore), captured antibody, FcγR analyte.

The target in test [5] is T5, human FcγRIIIa type V (allotype V158) extracellular domain with C-terminal His tag (human, UniProt P08637 17-208).
T5 construct: extracellular domain; also called FcγRIIIaV; FcγRIIIa V type; not shown: His tag at the C terminus
The experiment in a line: SPR (Biacore), antibody captured, FcγR analyte.
T5 sequence (P08637 17-208 F176V): as the sequence (P08637 17-208 F176V) above

Test [6] deals with T6, mouse FcγRIV (mouse, UniProt A0A0B4J1G0 21-203).
T6 construct: also called mFcγRIV; not shown: purification tag of the soluble receptor (probably a His tag)
T6 sequence: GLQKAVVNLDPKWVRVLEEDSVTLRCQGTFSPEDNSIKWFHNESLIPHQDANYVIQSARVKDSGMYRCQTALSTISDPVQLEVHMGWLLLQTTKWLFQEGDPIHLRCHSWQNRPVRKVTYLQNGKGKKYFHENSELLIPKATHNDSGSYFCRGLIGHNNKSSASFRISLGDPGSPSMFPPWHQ
The experiment in a line: SPR (Biacore), method of Reference Example 2.

In test [7] the target is T7, mouse FcγRI (mouse, UniProt P26151 25-297).
T7 construct: extracellular domain; also called mFcγRI
T7 sequence (looked up): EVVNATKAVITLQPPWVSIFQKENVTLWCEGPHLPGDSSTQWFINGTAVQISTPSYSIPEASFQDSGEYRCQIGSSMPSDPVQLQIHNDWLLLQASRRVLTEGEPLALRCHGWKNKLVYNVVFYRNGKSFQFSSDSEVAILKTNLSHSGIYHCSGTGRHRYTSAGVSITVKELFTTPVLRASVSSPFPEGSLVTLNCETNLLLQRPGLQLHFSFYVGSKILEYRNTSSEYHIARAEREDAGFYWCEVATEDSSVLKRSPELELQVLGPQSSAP
The experiment in a line: SPR (Biacore), method of Reference Example 2.

Experimental findings from patent US20240279325A1 (Chugai, published 2024) are described below.

For orientation: Kd means the constant that tells how readily two partners part at equilibrium. Higher therefore signals a looser complex.

B1: IL6R-BP195/IL6R-L (antibody, human IgG1, kappa, name in EU numbering)
heavy: QVQLQESGPGLVKPSETLSLTCAVSGHSISHDHAWSWVRQPPGEGLEWIGFISYSGITNYNPSLQGRVTISRDNSKNTLYLQMNSLRAEDTAVYYCARSLARTTAMDYWGEGTLVTVSSASTKGPSVFPLAPSSKSTSGGTAALGCLVKDYFPEPVTVSWNSGALTSGVHTFPAVLQSSGLYSLSSVVTVPSSSLGTQTYICNVNHKPSNTKVDKKVEPKSCDKTHTCPPCPAPDYLGDDSVFLFPPKPKDTLMISRTPEVTCVVVDVSDEDGEVKFNWYVDGVEVHNAKTKPREEQDNSTYRVVSVLTVLHQDWLNGKEYKCKVSNAALPKPIEKTISKAKGQPREPQVYTLPPSRDELTKNQVSLTCLVKGFYPSDIAVEWESNGQPENNYKTTPPVLDSDGSFFLYSKLTVDKSRWQQGNVFSCSVMHEALHNHYTQESLSLSP
light: not shown
notes: Alterations introduced into IL6R-B3, EU numbering; copies: 2 + 2
With B1, the relative binding activity in test [1] is 221 % of IL6R-BF648/IL6R-L binding; in test [2], 68 % of IL6R-BF648/IL6R-L binding; in test [3] it was 661 % of IL6R-BF648/IL6R-L binding; in test [4] it was 344 % of IL6R-BF648/IL6R-L binding.

B2: IL6R-BP231/IL6R-L (antibody, human IgG1, kappa, name in EU numbering)
heavy: QVQLQESGPGLVKPSETLSLTCAVSGHSISHDHAWSWVRQPPGEGLEWIGFISYSGITNYNPSLQGRVTISRDNSKNTLYLQMNSLRAEDTAVYYCARSLARTTAMDYWGEGTLVTVSSASTKGPSVFPLAPSSKSTSGGTAALGCLVKDYFPEPVTVSWNSGALTSGVHTFPAVLQSSGLYSLSSVVTVPSSSLGTQTYICNVNHKPSNTKVDKKVEPKSCDKTHTCPPCPAPELLGDDSVFLFPPKPKDTLMISRTPEVTCVVVDVSDEDGEVKFNWYVDGVEVHNAKTKPREEQDNSTYRVVSVLTVLHQDWLNGKEYKCKVSNKALPRPIEKTISKAKGQPREPQVYTLPPSRDELTKNQVSLTCLVKGFYPSDIAVEWESNGQPENNYKTTPPVLDSDGSFFLYSKLTVDKSRWQQGNVFSCSVMHEALHNHYTQESLSLSP
light: not shown
notes: EU numbering; copies: 2 + 2
B2 displayed a Kd in test [5] of 40 µM.

B3: IL6R-BP217/IL6R-L (antibody, human IgG1, kappa, name in EU numbering)
heavy: QVQLQESGPGLVKPSETLSLTCAVSGHSISHDHAWSWVRQPPGEGLEWIGFISYSGITNYNPSLQGRVTISRDNSKNTLYLQMNSLRAEDTAVYYCARSLARTTAMDYWGEGTLVTVSSASTKGPSVFPLAPSSKSTSGGTAALGCLVKDYFPEPVTVSWNSGALTSGVHTFPAVLQSSGLYSLSSVVTVPSSSLGTQTYICNVNHKPSNTKVDKKVEPKSCDKTHTCPPCPAPELLGDDSVFLFPPKPKDTLMISRTPEVTCVVVDVQDEDGEVKFNWYVDGVEVHNAKTKPREEQDNSTYRVVSVLTVLHQDWLNGKEYKCKVSNKALPKPIEKTISKAKGQPREPQVYTLPPSRDELTKNQVSLTCLVKGFYPSDIAVEWESNGQPENNYKTTPPVLDSDGSFFLYSKLTVDKSRWQQGNVFSCSVMHEALHNHYTQESLSLSP
light: not shown
notes: EU numbering; copies: 2 + 2
As for B3, in test [5], the Kd came out at 60 µM.

B4: VH3/L(WT)-mIgG1-mF44 (antibody)
heavy: QVQLQESGPGLVKPSETLSLTCAVSGHSISHDHAWSWVRQPPGEGLEWIGFISYSGITNYNPSLQGRVTISRDNSKNTLYLQMNSLRAEDTAVYYCARSLARTTAMDYWGEGTLVTVSSAKTTPPSVYPLAPGSAAQTNSMVTLGCLVKGYFPEPVTVTWNSGSLSSGVHTFPAVLQSDLYTLSSSVTVPSSTWPSETVTCNVAHPASSTKVDKKIVPRDCGCKPCICTVPEVSSVFIFPPKPKDVLTITLTPKVTCVVVDISKDDPEVQFSWFVDDVEVHTAQTQPREEQFNSTFRSVSELPIMHQDWLNGKEFKCRVNSADFPAPIEKTISKTKGRPKAPQVYTIPPPKEQMAKDKVSLTCMITDFFPEDITVEWQWNGQPAENYKNTQPIMDTDGSYFVYSKLNVQKSNWEAGNTFTCSVLHEGLHNHHTEKSLSHSPGK
light: not shown
notes: copies: 2 + 2
On to B4, for which the binding result in test [6] and in test [7] was “no binding” in each case.

B5: VH3/L(WT)-mIgG1 (antibody)
heavy: QVQLQESGPGLVKPSETLSLTCAVSGHSISHDHAWSWVRQPPGEGLEWIGFISYSGITNYNPSLQGRVTISRDNSKNTLYLQMNSLRAEDTAVYYCARSLARTTAMDYWGEGTLVTVSSAKTTPPSVYPLAPGSAAQTNSMVTLGCLVKGYFPEPVTVTWNSGSLSSGVHTFPAVLQSDLYTLSSSVTVPSSTWPSETVTCNVAHPASSTKVDKKIVPRDCGCKPCICTVPEVSSVFIFPPKPKDVLTITLTPKVTCVVVDISKDDPEVQFSWFVDDVEVHTAQTQPREEQFNSTFRSVSELPIMHQDWLNGKEFKCRVNSAAFPAPIEKTISKTKGRPKAPQVYTIPPPKEQMAKDKVSLTCMITDFFPEDITVEWQWNGQPAENYKNTQPIMDTDGSYFVYSKLNVQKSNWEAGNTFTCSVLHEGLHNHHTEKSLSHSPGK
light: not shown
notes: mouse IgG1 constant region; copies: 2 + 2
Consider B5, for which the binding result in test [6] and in test [7] was “no binding” each time.

B6: VH3/L(WT)-mIgG1-mF46 (antibody)
heavy: QVQLQESGPGLVKPSETLSLTCAVSGHSISHDHAWSWVRQPPGEGLEWIGFISYSGITNYNPSLQGRVTISRDNSKNTLYLQMNSLRAEDTAVYYCARSLARTTAMDYWGEGTLVTVSSAKTTPPSVYPLAPGSAAQTNSMVTLGCLVKGYFPEPVTVTWNSGSLSSGVHTFPAVLQSDLYTLSSSVTVPSSTWPSETVTCNVAHPASSTKVDKKIVPRDCGCKPCICTVPEVSDVFIFPPKPKDVLTITLTPKVTCVVVDISKDDPEVQFSWFVDDVEVHTAQTQPREEQFNSTFRSVSELPIMHQDWLNGKEFKCRVNSADFPAPIEKTISKTKGRPKAPQVYTIPPPKEQMAKDKVSLTCMITDFFPEDITVEWQWNGQPAENYKNTQPIMDTDGSYFVYSKLNVQKSNWEAGNTFTCSVLHEGLHNHHTEKSLSHSPGK
light: not shown
notes: copies: 2 + 2
For the molecule B6, the binding result in test [6] and in test [7] was “no binding” each time.
